# In IntAct's records for PubMed 21602882:
# B1: Tumor protein 63 (Homo sapiens), Q9H3D4 (parent)
# chain: MNFETSRCATLQYCPDPYIQRFVETPAHFSWKESYYRSTMSQSTQTNEFLSPEVFQHIWDFLEQPICSVQPIDLNFVDEPSEDGATNKIEISMDCIRMQDSDLSDPMWPQYTNLGLLNSMDQQIQNGSSSTSPYNTDHAQNSVTAPSPYAQPSSTFDALSPSPAIPSNTDYPGPHSFDVSFQQSSTAKSATWTYSTELKKLYCQIAKTCPIQIKVMTPPPQGAVIRAMPVYKKAEHVTEVVKRCPNHELSREFNEGQIAPPSHLIRVEGNSHAQYVEDPITGRQSVLVPYEPPQVGTEFTTVLYNFMCNSSCVGGMNRRPILIIVTLETRDGQVLGRRCFEARICACPGRDRKADEDSIRKQQVSDSTKNGDGTKRPFRQNTHGIQMTSIKKRRSPDDELLYLPVRGRETYEMLLKIKESLELMQYLPQHTIETYRQQQQQQHQHLLQKQTSIQSPSSYGNSSPPLNKMNSMNKLPSVSQLINPQQRNALTPTTIPDGMGANIPMMGTHMPMAGDMNGLSPTQALPPPLSMPSTSHCTPPPPYPTDCSIVSFLARLGCSSCLDYFTTQGLTTIYQIEHYSMDDLASLKIPEQFRHAIWKGILDHRQLHEFSSPSHLLRTPSSASTVSVGSSETRGERVIDAVRFTLRQTISFPPRDEWNDFNFDMDARRNKQQRIKEEGE
# Variants of: B1
# Details: with hipk2_human HIPK2, Q9H2X6
# Sequence of hipk2_human HIPK2, Q9H2X6 (Q9H2X6 whole entry, looked up): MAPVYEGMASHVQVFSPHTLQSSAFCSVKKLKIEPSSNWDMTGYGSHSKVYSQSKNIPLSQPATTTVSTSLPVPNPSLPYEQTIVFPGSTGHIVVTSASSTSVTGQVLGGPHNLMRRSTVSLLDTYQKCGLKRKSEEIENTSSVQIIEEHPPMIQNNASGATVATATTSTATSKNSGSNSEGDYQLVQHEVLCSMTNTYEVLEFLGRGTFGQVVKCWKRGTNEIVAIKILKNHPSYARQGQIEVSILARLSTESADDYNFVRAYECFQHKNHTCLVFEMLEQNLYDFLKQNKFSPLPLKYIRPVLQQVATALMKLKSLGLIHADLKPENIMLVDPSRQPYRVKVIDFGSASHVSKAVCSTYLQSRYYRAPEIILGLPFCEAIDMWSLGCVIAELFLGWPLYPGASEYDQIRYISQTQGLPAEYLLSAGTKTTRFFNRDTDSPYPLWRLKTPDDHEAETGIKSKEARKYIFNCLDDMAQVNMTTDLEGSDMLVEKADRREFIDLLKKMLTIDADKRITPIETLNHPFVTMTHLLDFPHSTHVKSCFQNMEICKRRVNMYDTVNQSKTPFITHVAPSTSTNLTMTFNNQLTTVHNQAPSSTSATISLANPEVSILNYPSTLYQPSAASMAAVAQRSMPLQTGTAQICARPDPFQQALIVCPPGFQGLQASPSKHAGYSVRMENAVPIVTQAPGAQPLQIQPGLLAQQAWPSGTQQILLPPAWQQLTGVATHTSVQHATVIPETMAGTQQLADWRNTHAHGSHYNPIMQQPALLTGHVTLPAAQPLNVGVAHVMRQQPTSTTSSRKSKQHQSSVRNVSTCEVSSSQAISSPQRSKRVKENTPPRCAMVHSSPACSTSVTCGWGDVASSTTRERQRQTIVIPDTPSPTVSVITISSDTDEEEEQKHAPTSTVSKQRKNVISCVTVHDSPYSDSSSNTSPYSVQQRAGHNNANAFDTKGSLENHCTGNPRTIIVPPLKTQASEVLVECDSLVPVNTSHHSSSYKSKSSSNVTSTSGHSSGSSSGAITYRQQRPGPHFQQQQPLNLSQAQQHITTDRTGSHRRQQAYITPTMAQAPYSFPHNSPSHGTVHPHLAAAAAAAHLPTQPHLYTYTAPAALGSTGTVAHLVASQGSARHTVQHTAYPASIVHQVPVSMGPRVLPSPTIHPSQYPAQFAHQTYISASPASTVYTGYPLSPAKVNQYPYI
row,Variant,effect of a mutation on the interaction
1,T491A,disrupting interaction strength
